T1: human CD19 on human B lymphoma cell line Raji (Homo sapiens, UniProt P15391)
T1 construct: incubating 1×10^6 CD19-expressing Raji cells with 0.001 μg/ml of each construct; endogenous in cells; host or cells: Raji (human B lymphoma cell line)
T1 sequence (P15391 20-556): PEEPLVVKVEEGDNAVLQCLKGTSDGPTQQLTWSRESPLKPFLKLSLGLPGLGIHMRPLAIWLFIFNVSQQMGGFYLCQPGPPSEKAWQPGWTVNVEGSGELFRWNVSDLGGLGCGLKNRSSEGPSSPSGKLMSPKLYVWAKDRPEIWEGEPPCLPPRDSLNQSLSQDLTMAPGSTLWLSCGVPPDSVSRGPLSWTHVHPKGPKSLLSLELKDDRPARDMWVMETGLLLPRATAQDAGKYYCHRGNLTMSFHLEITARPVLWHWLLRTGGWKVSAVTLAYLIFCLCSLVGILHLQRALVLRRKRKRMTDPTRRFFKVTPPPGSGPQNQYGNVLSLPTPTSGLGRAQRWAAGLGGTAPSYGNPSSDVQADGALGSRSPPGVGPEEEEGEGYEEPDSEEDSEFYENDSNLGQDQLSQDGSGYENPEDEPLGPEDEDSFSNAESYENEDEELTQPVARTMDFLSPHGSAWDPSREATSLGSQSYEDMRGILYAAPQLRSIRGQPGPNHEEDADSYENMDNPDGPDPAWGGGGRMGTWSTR

T2: human CD19 on human B lymphoma cell lines Ramos (Homo sapiens, UniProt P15391)
T2 construct: two molecular constructs containing MBM-1 and MBM-3 on CD19-expressing Ramos cells; endogenous in cells; host or cells: Ramos (human B lymphoma cell line)
T2 sequence (P15391 20-556): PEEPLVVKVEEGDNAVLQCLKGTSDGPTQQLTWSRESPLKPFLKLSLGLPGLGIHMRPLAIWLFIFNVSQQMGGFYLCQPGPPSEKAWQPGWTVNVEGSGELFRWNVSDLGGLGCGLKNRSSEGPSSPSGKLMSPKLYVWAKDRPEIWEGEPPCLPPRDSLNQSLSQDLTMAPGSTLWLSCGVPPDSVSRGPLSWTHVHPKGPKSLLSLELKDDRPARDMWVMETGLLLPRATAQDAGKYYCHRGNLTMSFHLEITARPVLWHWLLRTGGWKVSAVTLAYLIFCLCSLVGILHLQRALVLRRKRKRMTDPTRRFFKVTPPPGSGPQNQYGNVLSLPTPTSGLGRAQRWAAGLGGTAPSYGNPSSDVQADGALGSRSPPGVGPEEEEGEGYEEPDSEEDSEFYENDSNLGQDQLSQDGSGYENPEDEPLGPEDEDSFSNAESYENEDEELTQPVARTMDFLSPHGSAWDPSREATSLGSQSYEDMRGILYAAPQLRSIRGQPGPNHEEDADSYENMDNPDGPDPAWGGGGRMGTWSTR

B1: stabilized 2-chain (scFv α CD19)-Fc-MBM-1×2 DOTA bundles: 2-chain anti-CD19 scFv-Fc fusion with MBM-1 (ACPGHA), two Mal-Peptide 2-DOTA bundles conjugated, maleimide ring opened (conjugate)
chain: EIVLTQSPAIMSASPGERVTMTCSASSGVNYMHWYQQKPGTSPRRWIYDTSKLASGVPARFSGSGSGTDYSLTISSMEPEDAATYYCHQRGSYTFGGGTKLEIKRGSTSGSGKPGSGEGSTKGQVQLVQPGAEVVKPGASVKLSCKTSGYTFTSNWMHWVKQAPGQGLEWIGEIDPSDSYTNYNQNFQGKAKLTVDKSTSTAYMEVSSLRSDDTAVYYCARGSNPYYYAMDYWGQGTSVTVSSGGGASDKTHTCPPCPAPELLGGPSVFLFPPKPKDTLMISRTPEVTCVVVDVSHEDPEVKFNWYVDGVEVHNAKTKPREEQYNSTYRVVSVLTVLHQDWLNGKDYKCKVSNKALPAPIEKTISKAKGQPREPQVYTLPPSRDELTRNQVSLTCLVKGFYPSDIAVEWESNGQPENNYKTTPPVLDSDGSFFLYSKLTVDKSRWQQGNVFSCSVMHEALHNHYTQKSLSLSPGGGGACPGHA
B2: (scFv α CD19)-Fc-MBM-1 fusion protein: scFv specific for human CD19 (from RB4v1.2) fused to IgG1.Fc, GGGG linker and MBM-1 ACPGHA; SEQ ID NO: 13 (protein)
chain: EIVLTQSPAIMSASPGERVTMTCSASSGVNYMHWYQQKPGTSPRRWIYDTSKLASGVPARFSGSGSGTDYSLTISSMEPEDAATYYCHQRGSYTFGGGTKLEIKRGSTSGSGKPGSGEGSTKGQVQLVQPGAEVVKPGASVKLSCKTSGYTFTSNWMHWVKQAPGQGLEWIGEIDPSDSYTNYNQNFQGKAKLTVDKSTSTAYMEVSSLRSDDTAVYYCARGSNPYYYAMDYWGQGTSVTVSSGGGASDKTHTCPPCPAPELLGGPSVFLFPPKPKDTLMISRTPEVTCVVVDVSHEDPEVKFNWYVDGVEVHNAKTKPREEQYNSTYRVVSVLTVLHQDWLNGKDYKCKVSNKALPAPIEKTISKAKGQPREPQVYTLPPSRDELTRNQVSLTCLVKGFYPSDIAVEWESNGQPENNYKTTPPVLDSDGSFFLYSKLTVDKSRWQQGNVFSCSVMHEALHNHYTQKSLSLSPGGGGACPGHA

Experiments:
[1] = target: T1, human CD19 on human B lymphoma cell line Raji; experiment: Cell staining (FACS) binding to CD19-expressing Raji cells; type: cell-based; conditions: 0.001 μg/ml, on ice 30 minutes
Experimental: (§1) Two stabilized molecular constructs, (scFv α CD19)-Fc-MBM-1×2 DOTA bundles and (scFv α CD19)-Fc-MBM-3×2 DOTA bundles, were analyzed for their ability to bind to human CD19 on human B lymphoma cell line Raji. The assay was performed by incubating 1×10^6 CD19-expressing Raji cells with 0.001 μg/ml of each construct in PBS, 1% BSA on ice for 30 minutes, using anti-CD19 antibody (RB4v1.2), (scFv α CD19)-Fc-MBM-1×2 DOTA bundles and (scFv α CD19)-Fc-MBM-3×2 DOTA bundles as positive controls. The anti-HER2 antibody (trastuzumab) was used as a negative control. The staining of cells was analyzed by FACS (FACSCanto II; BD Biosciences) using FITC-conjugated goat anti-human IgG.Fc (diluted 1:200 in PBS/BSA) (Caltag, Buckingham, UK) at 4° C. for 20 minutes in the dark.

[2] = target: T2, human CD19 on human B lymphoma cell lines Ramos; experiment: Cell staining (FACS) binding to CD19-expressing Ramos cells; type: cell-based
Experimental: as §1
These molecular constructs were also analyzed for their ability to bind to human CD19 on human B lymphoma cell lines Ramos. The assay was performed using the protocol similar to the one used in cell binding assay with Raji cells. The staining of Ramos cells was analyzed by FACS (FACSCanto II; BD Biosciences) using FITC-conjugated goat anti-human IgG.Fc, where anti-CD19 IgG is used as a positive control. The anti-HER2 antibody (trastuzumab) was used as a negative control. […]

[3] = Stability with glutathione or human serum albumin, SDS-PAGE; type: in vitro ADME; conditions: 37° C., 30 days
Experimental: To evaluate the stability of the stabilized 2-chain (scFv α CD19)-Fc-MBM-1×2 DOTA bundles, the molecular constructs were placed in Tris buffer (100 mM Tris buffer at pH 7.3, 50 mM Bis-Tris buffer, and 290 mM NaCl) with glutathione or human serum albumin, and then incubated at 37° C. for 30 days.

[4] = Examination of retro-Michael addition product, Western blot; type: in vitro ADME; conditions: 37° C., 30 days, compared with stock at 4° C.
Experimental: A further confirmation of the stability of the 2-chain (scFv α CD19)-Fc-MBM-1×2 DOTA bundles, the stabilized molecular construct was incubated with glutathione or HSA and then analyzed using Western blot.
For the western blot analysis of the stabilized samples, briefly, the samples were separated on 8% SDS-PAGE gels and transferred to a poly(vinylidene fluoride) (PVDF) membrane (Millipore). The membrane blots were blocked in PBS containing 5% BSA and 0.05% Tween 20 for 1 hour at room temperature. After washing 3 times with phosphate buffered saline tween-20 (PBST) containing PBS and 0.05% Tween-20, the blots were incubated with goat anti-human IgG.Fc antibody conjugated with horseradish peroxidase (Millipore). Then the membranes were washed 3 times with PBST, and immunoreacted bands were detected using ECL™ western blotting detection reagents (Millipore) and exposed on Fujifilm (Tokyo, Japan).

[5] = Half-life in BALB/c mice after i.v. administration (serum ELISA); type: in vivo; conditions: about 200 μL of 3.33 μM protein
Experimental: The measurement of half-lives of the stabilized 2-chain (scFv α CD19)-Fc-MBM-1×2 DOTA bundles was carried out in mice after i.v. administration. The (scFv α CD19)-Fc-MBM-1×2 DOTA bundles in the serum sample was observed using ELISA. 8 to 10-week-old BALB/c mice were purchased from BioLasco, Taipei, Taiwan. Mice were grouped into three mice per group, and were injected intravenously with about 200 μL of 3.33 μM protein.

[6] = system: CD19-expressing tumors (Raji xenograft); experiment: IVIS imaging of targeting to CD19-expressing xenograft tumor; type: in vivo, NOD-SCID mice
Text: In this Example, in vivo imaging system (IVIS) was used to investigate the targeting effect of the stabilized 2-chain (scFv α CD19)-Fc-MBM-1×2 DOTA bundles to CD19-expressing tumors in mouse xenograft model. Prior to IVIS imaging, a Dylight 680 Antibody Labeling Kit (Thermo Scientific) was used to conjugate the stabilized 2-chain (scFv α CD19)-Fc-MBM-1×2 DOTA bundles from Example 19 and the anti-CD19 antibody (RB4v1.2), according to the manufacturer's instructions.
8 to 10-week-old NOD-SCID (NOD.CB17-Prkdc^scid/JNarl) were purchased from Laboratory Animal Facility of Institute of Cellular and Organismic Biology, Academia Sinica, Taipei, Taiwan. The mice were injected intraperitoneally with 1×10^7 B-cell lymphoma Raji cells per mouse 2 weeks before the treatment. The mice were grouped into three mice per group, and were injected intravenously with about 200 μL of 6.65 μM labeled molecule. At various time points, mice were anaesthetized with isoflurane in O2 and placed in the IVIS Spectrum In Vivo Imaging System (PerkinElmer) with a supine position. […] Images were captured at indicated time points using IVIS Spectrum imager and analyzed with Living Image software.
Fluorescent images from NOD-SCID mice were captured and analyzed at 0 hour, 24 hours, 48 hours, and 72 hours after the administration of DyLight 680-conjugated proteins. […]

[7] = system: CD19-expressing tumors (Raji xenograft); experiment: Biodistribution by tissue ELISA in CD19-expressing xenograft tumor model; type: in vivo, NOD-SCID mice; conditions: day 7 after i.v. injection
Experimental: For biodistribution analysis of the stabilized (scFv α CD19)-Fc-MBM-1×2 DOTA bundles in xenograft mouse model, the procedure set forth in Example 32 was used with some modifications.
Briefly, the mice were injected subcutaneously with 1×10^7 B-cell lymphoma Raji cells per mouse 2 to 3 weeks before the treatment. The mice were grouped into three mice per group, and were injected intravenously with about 200 μL of 6.65 μM labeled molecule.
Biodistribution of NOD-SCID mice were analyzed by tissue ELISA at 7 days after the administration of the stabilized 2-chain (scFv α CD19)-Fc-MBM-1×2 DOTA bundles and the anti-CD19 antibody. Briefly, the animals were sacrificed at day 7 after injection. Blood was hemospasia from the heart, and tissue samples from 11 organs were collected. Tissues samples were homogenized using homogenizer and analyzed further for measuring the concentration of the injected molecules by ELISA.

Molecule | binding to Raji cells (cell staining) [1] | binding to Ramos cells (cell staining) [2] | stability while incubated with glutathione or human serum albumin ([3]; SDS-PAGE) | intact molecular construct still in solution without retro-Michael addition product ([3]; HSA-treated group) | intact molecular construct still in solution without retro-Michael addition product ([3]; glutathione-treated group) | stability while incubated with glutathione or HSA [4] | half-life [5] [h] | penetration into tumors compared with normal organ ([6]; 24, 48 and 72 hours after i.v. injection, DyLight 680-labeled) | targeting effect to CD19-expressing tumors ([6]; mouse xenograft model) | targeting of CD19-expressing tumors (tissue-to-blood ratio biodistribution) [7]
B1 | bound to Raji cells substantially positively | bound to Ramos cells substantially positively | satisfactory stability | approximately 90% | approximately 90% | satisfactory stability | ~193.5 | significantly greater | satisfactory targeting effect | can target CD19-expressing tumors
B2 |  |  |  |  |  |  | ~179.6 |  |  | 

Reference: US11926678B2, “Composite polypeptide having a metal binding motif and molecular construct comprising the same” (Immunwork Inc., priority 2020, dated 2024)
